Laboratory results as given in publication PMC11842843, “Structural basis for malate-driven, pore lipid-regulated activation of the Arabidopsis vacuolar anion channel ALMT9” (Nature Communications, 2025).

Molecular target: the molecule itself
Assay: cryo-EM structure; purified AtALMT9-sfGFP-HA-H10 in LMNG; three datasets (LMNG + CHS; LMNG + CHS + 10 mM malate; LMNG + 10 mM malate); 20 mM HEPES pH 7.6, 150 mM NaCl, 1 mM TCEP; nine lipid-bound classes

B1: AtALMT9-superfolder GFP (sfGFP)-hemagglutinin (HA) tag-decahistidine (H10) tag (natural protein, Arabidopsis thaliana, UniProt Q9LS46 1-598, looked up)
chain: MAAKQGSFRHGILEKRERLLSNNGFSDFRFTDIESNDLLENENCGRRTRLCCCCSCGNLSEKISGVYDDAKDVARKAWEMGVSDPRKIVFSAKIGLALTIVALLIFYQEPNPDLSRYSVWAILTVVVVFEFTIGATLSKGFNRALGTLSAGGLALGMAELSTLFGDWEEIFCTLSIFCIGFLATFMKLYPSMKAYEYGFRVFLLTYCYILISGFRTGQFIEVAISRFLLIALGAGVSLGVNMFIYPIWAGEDLHNLVVKNFMNVATSLEGCVNGYLRCLEYERIPSKILTYQASEDPVYKGYRSAVESTSQEESLMSFAIWEPPHGPYKSFNYPWKNYVKLSGALKHCAFTVMALHGCILSEIQAPEERRQVFRQELQRVGVEGAKLLRELGEKVKKMEKLGPVDLLFEVHLAAEELQHKIDKKSYLLVNSECWEIGNRATKESEPQELLSLEDSDPPENHAPPIYAFKSLSEAVLEIPPSWGEKNHREALNHRPTFSKQVSWPARLVLPPHLETTNGASPLVETTKTYESASALSLATFASLLIEFVARLQNVVDAFKELSQKANFKEPEIVTTGTDVEFSGERVGLGQKIRRCFGM
notes: cloned into modified pACEBac2-sfGFP-HA-H10; No tag cleavage is described; The final models lack the flexible N-terminus, the C-terminus and two long loops (between H1 and H2, and between H5 and H6); also called ALMT9 from Arabidopsis thaliana; source: Sf9 cells (baculovirus), purified (TALON resin, Superdex 200 increase) in LMNG with or without CHS
- stoichiometry N: 2
